Laboratory results reported in CN113388035A (MABWELL SHANGHAI BIOTECHNOLOGY CO LTD; SHANGHAI PUMING …, dated 2021).

T1: 人IL7 protein (human, UniProt P13232 26-177)
T1 construct: also called 人IL7蛋白
T1 sequence (looked up): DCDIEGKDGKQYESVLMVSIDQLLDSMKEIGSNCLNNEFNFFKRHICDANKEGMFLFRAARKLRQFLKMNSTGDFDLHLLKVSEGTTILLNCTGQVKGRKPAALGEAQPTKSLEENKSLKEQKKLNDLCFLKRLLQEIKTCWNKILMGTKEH


Columns and labels:
人IL7 protein = target: T1, 人IL7 protein; test: ELISA, IL7 coated at 1ug/ml, HRP-goat anti-human IgG
[1] = target: T2, 人TSLP (human thymic stromal lymphopoietin) protein (human, UniProt Q969D9 29-159); test: BLI (Fortebio), method of Example 2, antibody on probe, TSLP in solution
T2 construct: also called hTSLP; 人TSLP蛋白

[2] = target: T2, 人TSLP (human thymic stromal …); test: BLI (Fortebio), antibody captured on AMC probe, 100nM TSLP, 1:1 fit
[3] = target: T2, 人TSLP (human thymic stromal …); test: BLI (Fortebio), method of Example 2, antibody on probe, TSLP in solution; remark: listed apart in the source

Row | binding result (人IL7 protein) | Kd [1] [nM] | Response [1] | koff [1] [s⁻¹] | kon [1] [M⁻¹ s⁻¹] | Kd [2] [nM] | koff [2] [s⁻¹] | kon [2] [M⁻¹ s⁻¹] | Kd [3] [nM] | koff [3] [s⁻¹] | kon [3] [M⁻¹ s⁻¹] | Binder
1 | no binding | 0.0637 | 0.368 | 3.98e-05 | 625000 |  |  |  |  |  |  | hzD01Hm5Lm4 (humanized, affinity-matured anti-human TSLP antibody) (antibody, human IgG2, V domains shown, not shown: human kappa light chain constant region) VH: EVQLVQSGAEVKKPGASVKVSCKASGYTFTNYFIDWVRQAPGQGLEWIGVIDAFSGGSNFNEKFKGRVTMTRDTSTSTAYMELSSLRSEDTAVYFCARESEVGEGFAYWGQGTLVTVSS VL: DIQMTQSPSSLSASVGDRVTISCRASQDISNYLNWYQQKPGKAPKLLIYYTSTLHSGVPSRFSGSGSGTDYTLTISSLQPEDIATYFCQQGNTLPYTFGQGTKLEIK
2 | no binding | 0.0983 | 0.426 | 6.08e-05 | 619000 |  |  |  |  |  |  | hzD01Lm12 (humanized, affinity-matured anti-human TSLP antibody) (antibody, human IgG2, V domains shown, also called hzD01m12; not shown: human kappa light chain constant region) VH: EVQLVQSGAEVKKPGASVKVSCKASGYTFTNYFIDWVRQAPGQGLEWIGVINPGSGGTNFNEKFKGRVTMTRDTSTSTAYMELSSLRSEDTAVYFCARESEVGEGFAYWGQGTLVTVSS VL: DIQMTQSPSSLSASVGDRVTISCRASQDISNYLNWYQQKPGKAPKLLIYYTSTLHSGVPSRFSGSGSGTDYTLTISSLQPEDIATYFCQQFDTLPYPFGQGTKLEIK
3 |  |  |  |  |  | 2.83 | 0.000225 | 79600 |  |  |  | IgG D01 (murine anti-human TSLP monoclonal antibody, clone D01) (antibody, V domains shown, Murine hybridoma IgG, kappa light chain amplified; also called 克隆D01) VH: QVQLQQSGAELVRPGTSVKVSCKASGYAFTNYFIDWVKQRPGQGLEWIGVINPGSGGTNFNEKFKGKATLTADKSSSTAYMQLSSLTSEDSAVYFCARESEVGEGFAYWGQGTLVTVSA VL: DIQMTQTSSSLSASLGDRVTISCRASQDISNYLNWYQQKPDGTVKLLIYYTSTLHSGVPSRFSGSGSGTDYSLTISNLEQEDIATYFCQQGNTLPYTFGGGTKLEIK
4 |  |  |  |  |  |  |  |  | 0.985 | 0.000356 | 361000 | xiD01 (anti-human TSLP chimeric antibody) (antibody, human IgG2, V domains shown, also called 抗人TSLP嵌合抗体蛋白xiD01; not shown: human kappa light chain constant region) VH: QVQLQQSGAELVRPGTSVKVSCKASGYAFTNYFIDWVKQRPGQGLEWIGVINPGSGGTNFNEKFKGKATLTADKSSSTAYMQLSSLTSEDSAVYFCARESEVGEGFAYWGQGTLVTVSA VL: DIQMTQTSSSLSASLGDRVTISCRASQDISNYLNWYQQKPDGTVKLLIYYTSTLHSGVPSRFSGSGSGTDYSLTISNLEQEDIATYFCQQGNTLPYTFGGGTKLEIK
